Experimental data as given in patent US20050255564A1, “Sulfated fucan” (TAKARA BIO INC, priority 2002, published 2005).

Assay: endo-type α-(1-4)L-fucosidase activity (HPLC of PA-labeled substrate)
Assay type: biochemical, Fucus vesiculosus
Details: endo-type α-(1-4)L-fucosidase activity after each purification step, Table 14
Experimental: The sulfated fucan oligosaccharide 1-(4) as described in Example 2 was used to establish a system for measuring an endo-type α-(1-4)L-fucosidase activity. First, the sulfated fucan oligosaccharide 1-(4) was fluorescently labeled at the reducing end with 2-aminopyridine according to the method as described in Example 2-(4). The endo-type α-(1-4)L-fucosidase activity was measured as follows.
Briefly, 75 μl of 100 mM sodium phosphate buffer (pH 7.0), 7.5 μl of a bovine serum albumin solution (2 mg/ml), 3.75 μl of 4 M sodium chloride, 50.25 μl of water, 6 μl of the sulfated fucan oligosaccharide 1-(4) fluorescently labeled at the reducing end with 2-aminopyridine (10 pmol/μl) and 7.5 μl of an endo-type α-(1-4)L-fucosidase solution were mixed together. After reacting at 30° C. for 3 hours, the reaction mixture was treated at 100° C. for 10 minutes and analyzed using HPLC. As controls, a reaction mixture obtained by a reaction in which the solvent for the endo-type α-(1-4)L-fucosidase was used in place of the enzyme solution and a reaction mixture obtained by a reaction in which water was used in place of the substrate were similarly analyzed. […]

Hydroxyapatite
Specific activity: 10.6 mU/mg
Total activity: 219 mU
